Measured values taken from patent US20190040142A1 (Genentech, published 2019).

B7: anti-KLB monoclonal antibody 2C12 (antibody, human IgG1, V domains shown)
VH: EVQLQQSGPGLVKPSQSLSLTCSVTGYSITSGYYWTWIRQFPGNKLEWMGYIKYDGGNYYNPSLRNRISITRDTSKNHFFLKFYSVTAEDTATYFCARGDYYASPYGAMDSWGQGTSVTVSS
VL: DIVMTQSPSSLSASLGDTITITCHASQDIDVWLSWYQQKPGNVPQLLISKSSILHTGVPSRFSGGGSGTGFTLTISSLQPEDIATYYCQQGLSYPFTFGSGTKLKIK
notes: hybridoma mouse IgG in the first screen; also called clone 2C12; 2C12 (human IgG1)

Legend:
[1] = biological target: human KLB/FGFR1c receptor complex on cells (human, UniProt Q86Z14 53-1044; P11362 22-822); test: cell-based or functional assay
Rat KLB [2] = biological target: T1, Rat KLB (limits assumed); test: flow cytometry, HEK293T cells transiently expressing the construct, anti-human IgG-Alexa 488
T1 construct: also called rat Klotho-beta
T1 single chain: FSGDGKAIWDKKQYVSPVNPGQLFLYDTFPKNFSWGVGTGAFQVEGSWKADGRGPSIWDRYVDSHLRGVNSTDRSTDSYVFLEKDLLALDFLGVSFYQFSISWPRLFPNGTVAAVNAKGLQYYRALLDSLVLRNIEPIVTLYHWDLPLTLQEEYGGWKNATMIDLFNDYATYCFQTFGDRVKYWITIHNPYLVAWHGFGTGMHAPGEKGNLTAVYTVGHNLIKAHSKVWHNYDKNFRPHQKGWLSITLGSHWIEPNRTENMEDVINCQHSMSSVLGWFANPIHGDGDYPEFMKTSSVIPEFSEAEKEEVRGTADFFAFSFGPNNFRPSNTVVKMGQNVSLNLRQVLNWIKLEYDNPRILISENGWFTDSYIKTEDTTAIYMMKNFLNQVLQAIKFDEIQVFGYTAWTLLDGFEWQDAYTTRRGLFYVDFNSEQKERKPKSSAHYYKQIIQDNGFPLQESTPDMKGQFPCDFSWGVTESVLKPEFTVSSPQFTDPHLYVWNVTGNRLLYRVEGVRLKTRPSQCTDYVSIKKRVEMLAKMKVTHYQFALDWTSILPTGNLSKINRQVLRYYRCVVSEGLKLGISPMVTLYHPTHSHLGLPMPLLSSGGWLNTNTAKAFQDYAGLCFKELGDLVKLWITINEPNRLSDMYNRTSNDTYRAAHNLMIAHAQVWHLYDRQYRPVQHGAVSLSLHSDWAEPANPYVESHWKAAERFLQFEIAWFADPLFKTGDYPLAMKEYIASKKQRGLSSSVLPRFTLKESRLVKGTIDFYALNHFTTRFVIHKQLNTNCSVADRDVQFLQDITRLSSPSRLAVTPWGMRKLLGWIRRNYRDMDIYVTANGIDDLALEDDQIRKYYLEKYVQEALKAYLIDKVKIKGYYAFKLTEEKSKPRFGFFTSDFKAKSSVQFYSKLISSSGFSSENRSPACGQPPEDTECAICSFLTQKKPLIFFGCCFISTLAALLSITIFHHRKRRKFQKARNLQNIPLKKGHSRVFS

[3] = biological target: T2, human KLB expressed on cells (human, UniProt Q86Z14 53-1044); test: flow cytometry, HEK293T cells transiently expressing the construct, antibody at 2 µg/ml, anti-human IgG-Alexa 488
T2 construct: also called hKLB; Klotho-beta

[4] = biological target: T2, human KLB expressed on cells; test: FACS, HEK293T cells expressing human/rat KLB chimeric proteins; summary table of + and - by epitope bin
[5] = biological target: B7; test: biolayer interferometry (Octet), anti-human Fc sensor -> human Ab1 -> no hKLB -> mouse Ab2
Method: Epitope binning experiments (FIGS. 11A-11B) were performed by BioLayer Inferometry in 8-channel or 16-channel mode using anti-mouse Fc or anti-human Fc capture biosensors on the Octet Red384 system (Pall Life Sciences, Menlo Park, Calif.). […] Epitope binning with anti-human Fc capture biosensors was done similarly.

Rat KLB [6] = biological target: T1, Rat KLB; test: FACS, HEK293T cells expressing human/rat KLB chimeric proteins; summary table of + and - by epitope bin
[7] = biological target: T3, recombinant human KLB (soluble protein) (human, UniProt Q86Z14 53-997, limits assumed); test: SPR (BIAcore T200), antibody captured on Protein A chip, monomeric human KLB as analyte, 25 C, 1:1 Langmuir fit
T3 construct: also called monomeric human KLB; recombinant KLB
Method: (§1) For binding affinity determination of tcIgG and traditional IgG, surface plasmon resonance (SPR) measurements using a BIAcore T200 and ProteinA sensor chip was used and dilutions of monomeric human KLB as analyte were injected over the immobilized tcIgG or traditional IgG at 25° C. to determine monovalent affinities. Association rates (kon) and dissociation rates (koff) were calculated using a simple one-to-one Langmuir binding model. The equilibrium dissociation constant (Kd) was calculated as the ratio koff/kon.

[8] = biological target: T3, recombinant human KLB (soluble protein); test: SPR, Biacore T200, antibody captured on Protein A chip, monomeric human KLB as analyte, 25 C; mean ± range of two experiments
Method: as §1

B1: bispecific anti-KLB antibody 12B8/2C12 (IgG format) (bispecific antibody, V domains shown)
VH 1: QIQLVQSGPELKKPGETAKISCKASGYAFSNYGMNWVKQAPGKDLKWMGWIDTDTGEATYTDDFKGRFVFSLETSASTAYLQINNLKNEDMATYFCAREEYGLFGFPYWGHGTLVTVSA
VL 1: DIQMTQSSSSFSVSLGDRVTITCKASEDIYNRLAWYQQKPGSAPRLLISAATSLETGVPSRFSGSGSGKDYTLSITSLQTEDVATYYCQQYWSNPLTFGAGTKLELK
VH 2: EVQLQQSGPGLVKPSQSLSLTCSVTGYSITSGYYWTWIRQFPGNKLEWMGYIKYDGGNYYNPSLRNRISITRDTSKNHFFLKFYSVTAEDTATYFCARGDYYASPYGAMDSWGQGTSVTVSS
VL 2: DIVMTQSPSSLSASLGDTITITCHASQDIDVWLSWYQQKPGNVPQLLISKSSILHTGVPSRFSGGGSGTGFTLTISSLQPEDIATYYCQQGLSYPFTFGSGTKLKIK
EC50 (nM), luciferase-based reporter assay [1]: 1.36 nM

B2: bispecific anti-KLB antibody 12B8/23B3 (IgG format) (bispecific antibody, V domains shown)
VH 1: QIQLVQSGPELKKPGETAKISCKASGYAFSNYGMNWVKQAPGKDLKWMGWIDTDTGEATYTDDFKGRFVFSLETSASTAYLQINNLKNEDMATYFCAREEYGLFGFPYWGHGTLVTVSA
VL 1: DIQMTQSSSSFSVSLGDRVTITCKASEDIYNRLAWYQQKPGSAPRLLISAATSLETGVPSRFSGSGSGKDYTLSITSLQTEDVATYYCQQYWSNPLTFGAGTKLELK
VH 2: EVQLQESGPGLVKPSQSLSLTCSVTGYSITSGYYWNWIRQFPGNKLEWMGYIRYDGNSNYNPFLKNRVSITRDTSKNQFFLKLNSVTTEDTATYYCTRKGAYYSSFDALDYWGQGTSVTVSS
VL 2: DIVMTQSPSSMYASLGERVTISCKASQDIRSYLSWFQQKPGKSPKTLIYRANRLVDGVPSRFSGSGSGQDYSLTITSLEFGDVGLYYCLQYDEFPLTFGAGTKLKIE
EC50 (nM), luciferase-based reporter assay [1]: 0.95 nM

B3: bispecific anti-KLB antibody 23B3/28B7 (IgG format) (bispecific antibody, V domains shown)
VH 1: EVQLQESGPGLVKPSQSLSLTCSVTGYSITSGYYWNWIRQFPGNKLEWMGYIRYDGNSNYNPFLKNRVSITRDTSKNQFFLKLNSVTTEDTATYYCTRKGAYYSSFDALDYWGQGTSVTVSS
VL 1: DIVMTQSPSSMYASLGERVTISCKASQDIRSYLSWFQQKPGKSPKTLIYRANRLVDGVPSRFSGSGSGQDYSLTITSLEFGDVGLYYCLQYDEFPLTFGAGTKLKIE
VH 2: EVQLQQSGPELVQPGTSVKISCEASGYTFTDYYINWVKQSRGKSLEWIGDINPNNGDTTYNQKFKAKATLTVDRSSNTAYMELRSLTSEDSVVYYCARRFYSSPFDSWGQGTTLTVSS
VL 2: DIVMTQSPSSLAVSVGEKVTLSCKSGQSLLYSRNQKNYLAWYQQKPGQSPKLLISWASTRESGVPDRFTGSGSGTDFTLTISSVKTEDLAVYHCQQYYSYPYTFGGGTRLEIK
EC50 (nM), luciferase-based reporter assay [1]: 0.63 nM

B4: bispecific anti-KLB antibody 2C12/28B7 (IgG format) (bispecific antibody, V domains shown)
VH 1: EVQLQQSGPGLVKPSQSLSLTCSVTGYSITSGYYWTWIRQFPGNKLEWMGYIKYDGGNYYNPSLRNRISITRDTSKNHFFLKFYSVTAEDTATYFCARGDYYASPYGAMDSWGQGTSVTVSS
VL 1: DIVMTQSPSSLSASLGDTITITCHASQDIDVWLSWYQQKPGNVPQLLISKSSILHTGVPSRFSGGGSGTGFTLTISSLQPEDIATYYCQQGLSYPFTFGSGTKLKIK
VH 2: EVQLQQSGPELVQPGTSVKISCEASGYTFTDYYINWVKQSRGKSLEWIGDINPNNGDTTYNQKFKAKATLTVDRSSNTAYMELRSLTSEDSVVYYCARRFYSSPFDSWGQGTTLTVSS
VL 2: DIVMTQSPSSLAVSVGEKVTLSCKSGQSLLYSRNQKNYLAWYQQKPGQSPKLLISWASTRESGVPDRFTGSGSGTDFTLTISSVKTEDLAVYHCQQYYSYPYTFGGGTRLEIK
EC50 (nM), luciferase-based reporter assay [1]: 0.58 nM

B5: bispecific anti-KLB antibody 4H7/28B7 (IgG format) (bispecific antibody, V domains shown)
VH 1: QVQLQQSGPELVKPGASVKLSCKASGYTFTNYDINWVRQRPGQGLEWIGWIYPRDGSAKYNAKFKGKATLTVDTSSSTAYMELHSLTSEDSAVYFCARRPLYYGSTHWYFDVWGTGTTVTVSS
VL 1: DIVLTQSPASLAVSLGQRATISCKASQSVDYDGDSYMNWYQQKPGQPPKLLIYAASNLKSGIPARFSGSGSGTDFTLNIHPVEEEDAATYYCQQSNEDPRTFGGGTRLEIK
VH 2: EVQLQQSGPELVQPGTSVKISCEASGYTFTDYYINWVKQSRGKSLEWIGDINPNNGDTTYNQKFKAKATLTVDRSSNTAYMELRSLTSEDSVVYYCARRFYSSPFDSWGQGTTLTVSS
VL 2: DIVMTQSPSSLAVSVGEKVTLSCKSGQSLLYSRNQKNYLAWYQQKPGQSPKLLISWASTRESGVPDRFTGSGSGTDFTLTISSVKTEDLAVYHCQQYYSYPYTFGGGTRLEIK
EC50 (nM), luciferase-based reporter assay [1]: 1.21 nM

B6: anti-KLB monoclonal antibody 12B8 (antibody, V domains shown)
VH: QIQLVQSGPELKKPGETAKISCKASGYAFSNYGMNWVKQAPGKDLKWMGWIDTDTGEATYTDDFKGRFVFSLETSASTAYLQINNLKNEDMATYFCAREEYGLFGFPYWGHGTLVTVSA
VL: DIQMTQSSSSFSVSLGDRVTITCKASEDIYNRLAWYQQKPGSAPRLLISAATSLETGVPSRFSGSGSGKDYTLSITSLQTEDVATYYCQQYWSNPLTFGAGTKLELK
notes: Mouse hybridoma antibody; tested as hybridoma supernatant, or recombinantly as mouse IgG2a or human IgG1, depending on the assay; also called clone 12B8; parental antibody 12B8
binding result (Rat KLB [2]): no binding (tested: 2 µg/ml (not on the sheet)) | binding result [3]: binds

B7
binding result (Rat KLB [2]): no binding (tested: 2 µg/ml (not on the sheet)) | binding result [4]: binds

B8: anti-KLB monoclonal antibody 23B3 (antibody, V domains shown)
VH: EVQLQESGPGLVKPSQSLSLTCSVTGYSITSGYYWNWIRQFPGNKLEWMGYIRYDGNSNYNPFLKNRVSITRDTSKNQFFLKLNSVTTEDTATYYCTRKGAYYSSFDALDYWGQGTSVTVSS
VL: DIVMTQSPSSMYASLGERVTISCKASQDIRSYLSWFQQKPGKSPKTLIYRANRLVDGVPSRFSGSGSGQDYSLTITSLEFGDVGLYYCLQYDEFPLTFGAGTKLKIE
notes: also called clone 23B3
binding result (Rat KLB [2]): no binding (tested: 2 µg/ml (not on the sheet)) | binding result [5]: no binding | binding result [4]: binds

B9: anti-KLB monoclonal antibody 4H7 (antibody, IgG1, V domains shown)
VH: QVQLQQSGPELVKPGASVKLSCKASGYTFTNYDINWVRQRPGQGLEWIGWIYPRDGSAKYNAKFKGKATLTVDTSSSTAYMELHSLTSEDSAVYFCARRPLYYGSTHWYFDVWGTGTTVTVSS
VL: DIVLTQSPASLAVSLGQRATISCKASQSVDYDGDSYMNWYQQKPGQPPKLLIYAASNLKSGIPARFSGSGSGTDFTLNIHPVEEEDAATYYCQQSNEDPRTFGGGTRLEIK
notes: hybridoma mouse IgG in the first screen; also called clone 4H7; 4H7 IgG
binding result (Rat KLB [6]): no binding (tested: not given) | kon [7]: 571000 M⁻¹ s⁻¹ | Kd [8]: 0.78 nM | koff [8]: 0.000444 s⁻¹ | kon [8]: 571000 M⁻¹ s⁻¹

B10: anti-KLB antibody clone 4H7 in tri-chain IgG format (antibody)
chain 1: DIVLTQSPASLAVSLGQRATISCKASQSVDYDGDSYMNWYQQKPGQPPKLLIYAASNLKSGIPARFSGSGSGTDFTLNIHPVEEEDAATYYCQQSNEDPRTFGGGTRLEIKRGGGGSGGGGSGGGGSGGGGSQVQLQQSGPELVKPGASVKLSCKASGYTFTNYDINWVRQRPGQGLEWIGWIYPRDGSAKYNAKFKGKATLTVDTSSSTAYMELHSLTSEDSAVYFCARRPLYYGSTHWYFDVWGTGTTVTVSS
chain 2: not shown
notes: VL-linker-VH-CH1-CH2-CH3 (VLfH) plus a separate CL domain disulfide-bonded to CH1; also called 4H7 tcIgG; 4H7 tcIgG1; not shown: human IgG1 heavy chain constant region (CH1-hinge-CH2-CH3); monospecific tcIgG were made by c
kon [7]: 332000 M⁻¹ s⁻¹ | Kd [8]: 1.29 nM | koff [8]: 0.000427 s⁻¹ | kon [8]: 332000 M⁻¹ s⁻¹
